Reference: the supplement of paper PMC10567573
± gives the standard deviation.

Experiment: protein stability index of a GFP-peptide fusion (GPS, HEK-293T) (PSI 1-6); higher = more stable
[1] = treatment: DMSO, c terminus: a fixed tail appended
[2] = treatment: MLN4924 1 uM, 8 h, c terminus: a fixed tail appended
[3] = treatment: DMSO, c terminus: native
[4] = treatment: MLN4924 1 uM, 8 h, c terminus: native
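Note: 24-mer peptide tiles fused after GFP, lentivirally expressed, FACS-sorted into six equal bins by GFP/DsRed ratio, decoded by Illumina sequencing, PSI is the read-weighted mean bin number.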

Sequence	protein stability index [1]	protein stability index [2]	protein stability index [3]	protein stability index [4]
GDWAPPPEGGMEQALAGASSGREL [ZNF263]	5.35 ± 0.36	5.37 ± 0.16	–	–
GEKPYLSPDILEEKHCEFKQLALD [ATL3]	4.42 ± 0.25	4.92 ± 0.12	–	–
GESYESCCPTSREAAVEALELLGA [FEM1A]	4.58 ± 0.12	4.66 ± 0.2	–	–
GGSTSAHYAVNSQFTMGGPAISMA [CARM1]	2.94 ± 0.55	2.94 ± 0.25	–	–
GHLCAAEVVKIRDSFSNQNTETKD [DLC1]	4.18 ± 0.063	4.14 ± 0.22	–	–
GIKGLVRDSHGKGIPNAIISVEGI [CPXM2]	2.8 ± 0.067	–	–	–
GIRKEDLDIVCERFTTSKLQSFED [MLH1]	3.6 ± 0.22	–	–	–
GIVVESNHDSHMAKERAHSTASHS [PDZK1]	–	4.44 ± 0.21	–	–
GKKDKHSQSPRAAGPREGHSHSHH [PBXIP1]	5.32 ± 0.31	5.26 ± 0.1	–	–
GLEGLEDAPPVELQLLHECSPSQM [FANCE]	4.77 ± 0.19	4.66 ± 0.12	–	–
GLGGGSSRTSCRLSGGLGAGSCRL [KRT17]	2.41 ± 0.13	2.35 ± 0.41	–	–
GLGYFSCHSHTVVQDYSYFFFLRM [CCDC3]	2.66 ± 0.71	2.3 ± 0.55	–	–
GLQAQIASSGLTVEVDAPKSQDLA [KRT18]	4.77 ± 0.35	4.94 ± 0.47	–	–
GLQSPGTLQPPEFLYSHGVPRTLS [TBX5]	3.32 ± 0.27	3.49 ± 0.36	–	–
GLSPRVIRVWFQNKRCKDKKKSIL [ISL2]	2.13 ± 0.45	2.36 ± 0.085	–	–
GLVYRIHSVLQGFIPLFQKFRLTG [TMEM40]	3.03 ± 0.56	2.73 ± 0.37	–	–
GMLDVADESLTDLEAQPYEAVFLR [P3H4]	4.02 ± 0.47	4.19 ± 0.21	–	–
GNAKGKILVLKTDSQDLVASFRVT [RBBP5]	2.17 ± 0.19	2.11 ± 0.28	–	–
GNKQWWFGGGCDLTPTYLNQEDAI [CPOX]	3.12 ± 0.19	3.33 ± 0.23	–	–
GNRILDEKEQEKMRQDLEEERVAL [PKD2L1]	5.24 ± 0.74	5.57 ± 0.27	–	–
GNTAVSVLMLLVALLFTGIAVLGI [SCAMP3]	1.99 ± 0.37	1.96 ± 0.34	–	–
GPAASEGAEQPPDLHCVLVTNPHS [GADD45A]	4.97 ± 0.14	4.95 ± 0.1	–	–
GPCEGPSKEDKDLDSSEGSSQEDE [SPANXN3]	5.68 ± 0.14	5.68 ± 0.14	–	–

Sequence	protein stability index [1]	protein stability index [2]	protein stability index [3]	protein stability index [4]
GQENDATSPHFSTRHEGSFQVPVL [CD69]	3.68 ± 0.35	3.69 ± 0.14	–	–
GQGAMFRLPTDSHFPYDLHLRSQS [NEUROD6]	3.02 ± 0.3	3.11 ± 0.22	–	–
GRCLEVEMSKDANFGLRLVVQRCS [GALNT9]	2.27 ± 0.15	2 ± 0.41	–	–
GRECQPRWETSSWSECSRTCGEGY [ADAMTSL2]	3.78 ± 0.15	3.49 ± 0.092	–	–
GSALTFREEQCAAYNHRTDLFKSF [ADAMTS4]	2.97 ± 0.17	2.88 ± 0.22	–	–
GSRPACQLQVPTLRQQCAQVLRNN [ELOA2]	4.43 ± 0.14	4.51 ± 0.3	–	–
GSSLSGSLCSLLESQSTSLRGSYN [LURAP1L]	3.07 ± 0.14	2.87 ± 0.29	–	–
GSTAITPGTPPSYSSRTPGTPGTP [MAP2]	4.87 ± 0.2	4.98 ± 0.11	–	–
GTLIGVGQSVTAVGRIIAPLLSGV [MFSD9]	2.03 ± 0.17	2.2 ± 0.29	–	–
GVPQIWEKIHEMVKKNSAKSMGLK [ACSBG2]	2.09 ± 0.21	2.53 ± 0.046	–	–
GYGRDRDYSDHPSGGSYRDSYESY [RBMX]	3.91 ± 0.2	3.462 ± 0.032	–	–
GYRDYGHSRRHESYSRGYSYHDGY [RBMY1A1]	2.64 ± 0.25	2.61 ± 0.45	–	–
GYSMNFNMSSSRGPLPVKRGPPPR [RBMX]	3.16 ± 0.23	3.82 ± 0.72	–	–
HARLRLSADRLTVRCGLLGSLGPV [TRIM14]	2.2 ± 0.65	2.31 ± 0.3	–	–
HCHIEESEHVLKKAHKYSELIILY [VPS39]	2.21 ± 0.33	2.12 ± 0.3	–	–
HFFGDKALKKRSGKKDKHSQSPRA [PBXIP1]	4.09 ± 0.36	4.33 ± 0.45	–	–
HFSRLCGPESPPPPYSRLSPRDEY [SMAD6]	3.42 ± 0.07	3.56 ± 0.17	–	–
HGHMCIAFELLGKNTFEFLKENNF [CLK3]	2.55 ± 0.87	2.92 ± 1.3	–	–
HGLQEGKDLFTQRQNSAPARMLSS [CDC25A]	4.4 ± 0.18	4.46 ± 0.15	–	–
HHFFCDIAPVLKLASHHNHFSQIV [OR10K2]	2.45 ± 0.45	2.67 ± 0.55	–	–
HHVADAYTSSQKVSPIQIDGAGRT [TOR1AIP2]	3.53 ± 0.21	3.74 ± 0.46	–	–
HINSISVNSDYETYMSADDLRINL [PPP2R2B]	3.15 ± 0.46	3.2 ± 0.54	–	–
HKIKHKHILAKNYFSQVPVLASFI [IQUB]	2.34 ± 0.37	2.32 ± 0.55	–	–

Sequence	protein stability index [1]	protein stability index [2]	protein stability index [3]	protein stability index [4]
HLEEPGETQNAFLNERKQASAIKK [CHGB]	5.11 ± 0.14	5.2 ± 0.28	–	–
HQGIKPYKCSWCGKSFSQNTNLHT [ZNF75A]	2.1 ± 0.002	2.52 ± 0.25	–	–
HQTQLLYQASAMMVESRYALLIVD [RAD51]	3.17 ± 0.74	2.8 ± 0.66	–	–
HSFVLVTSLGLTYDGMLSDVQSMP [MAGEA10]	2.83 ± 0.53	2.88 ± 0.47	–	–
HSMHKYQPRIHLVRAAQLCSQHWG [TBX6]	2.14 ± 0.2	2.22 ± 0.3	–	–
HSPSCLARVTGELTMTFPAGIVRV [FCHO1]	2.53 ± 0.44	2.67 ± 0.76	–	–
HSYCRMFLQRGADTNLGRLEDGQT [ASB7]	2.73 ± 0.44	2.85 ± 0.48	–	–
HSYLSGYISLLLRAEPYPTSRFGS [NR2F2]	3.06 ± 0.33	2.85 ± 0.2	–	–
HTPGTPKSAILVPSEKKVAIIRTP [MAP2]	3.96 ± 0.057	4.02 ± 0.2	–	–
HTTRSSLRGPRERAPSERSGPAAS [DVL3]	5.15 ± 0.24	4.75 ± 0.31	–	–
HWRECLFYPALWPQLRICLRVSPA [FBXO33]	2.42 ± 1.1	2.61 ± 0.78	–	–
HYAVNSQFTMGGPAISMASPMSIP [CARM1]	2.63 ± 0.21	2.78 ± 0.24	–	–
HYVAQTGILWLLMNNCFLNLSPRK [GAGE1]	2.72 ± 0.38	3.584 ± 0.027	–	–
HYYLMDDTVEIREVHERNDGIDPF [EFHC1]	3.92 ± 0.18	3.86 ± 0.32	–	–
IAGDEGTQIPADEDTQTDADSSAQ [TAF7L]	5.58 ± 0.27	5.45 ± 0.31	–	–
IDDLEDDPVVNGERSGCALTDAVA [TCF25]	5.3 ± 0.19	5.37 ± 0.11	–	–
IEDEDQILENSSQKENVFKCDSLK [FAN1]	5.07 ± 0.1	5.01 ± 0.35	–	–
IEPRERAKFKRKYKVKLVEKRAFR [NOP53]	2.87 ± 0.14	3.15 ± 0.32	–	–
IERSSSFSSITDSTMSLNIITVTL [DVL3]	2.8 ± 0.42	2.85 ± 0.23	–	–
IETSALDSTNVEEAFKNILTEIYR [RAB11B]	2.41 ± 0.14	2.79 ± 0.29	–	–
IGLGHIYSGTFALIGAAAFLGGVV [CLCN6]	2.94 ± 0.19	3.27 ± 0.7	–	–
IGRDPPAETQPQNPPAQPAPNAWQ [CLPTM1]	5.21 ± 0.31	5.02 ± 0.25	–	–
IIKQIPVEQMTKEERQAAQNECQV [NEK8]	4.93 ± 0.19	4.75 ± 0.24	–	–

Sequence	protein stability index [1]	protein stability index [2]	protein stability index [3]	protein stability index [4]
IKCFHEIITIGYNVYHSYDLPWFR [CDS2]	2.21 ± 0.12	2.31 ± 0.33	–	–
IKEAKEQHPDMSVTKVVVHKETEI [EPB41L3]	5.23 ± 0.14	5.02 ± 0.21	–	–
IKMAMVACGDAFTVAIGAESEVYS [NEK8]	2.57 ± 0.78	2.57 ± 0.5	–	–
ILDICEDNVPDPKDVKERFSGSLV [TMEM175]	3.83 ± 0.19	4.06 ± 0.13	–	–
ILFLPCLRKKILKIRHGWEDVTKI [STEAP1]	2.95 ± 0.39	2.46 ± 0.42	–	–
ILIREAQNQPIDKARKTYERLVAQ [CSTF3]	2.83 ± 0.2	2.82 ± 0.11	–	–
ILKHTPKEHPDVQLLEDAILIIQG [NET1]	2.12 ± 0.27	1.99 ± 0.35	–	–
ILTADLYSLFVGLFLFGYKFSGLY [SLC35F2]	2.45 ± 0.49	3.27 ± 0.19	–	–
INEDLKTCSRVDYCLLSDHGCEYS [MATN2]	3.41 ± 0.21	3.35 ± 0.33	–	–
INILQNEKSHQVLAQLLDTLLAIG [INTS4]	2.43 ± 0.31	2.17 ± 0.2	–	–
IPGHGGIMDRFDCQYLMATFVNVY [CDS2]	3 ± 0.46	2.54 ± 0.51	–	–
IPRENAQISLDGDVTFFGALKLL [TNFSF13B]	–	–	2.71 ± 0.24	2.73 ± 0.46
IPYNAKFLGSTEVEQPKGTEVVRD [GULP1]	4.7 ± 0.44	4.69 ± 0.23	–	–
IQRIRSEIENVKKQASNLETAIAD [KRT71]	4.42 ± 0.29	4.61 ± 0.31	–	–
IRQLQEQHYQQYMQQLYQVQLAQQ [ACBD3]	2.23 ± 0.29	2.43 ± 0.24	–	–
IRTANCTTANQNCVNKSKLLTDV [KCNA1]	–	–	3.19 ± 0.13	3.35 ± 0.28
IRVPSVPPVPCVPSVPCTPAPQVG [KRT36]	3.45 ± 0.27	3.57 ± 0.25	–	–
ISGLRFETQLKTLAQFPNTLLGNP [KCNA1]	2.46 ± 0.23	2.41 ± 0.11	–	–
ITEALRPAGVGVVVEATHMCMVMR [GCH1]	2.11 ± 0.38	2.29 ± 0.33	–	–
ITESYQTLHPISSEELLSLKYEND [ETS1]	4.81 ± 0.095	4.85 ± 0.22	–	–
IVSHFQKLFDVPSLNGVYPRMNEV [CEP70]	2.46 ± 0.82	2.56 ± 0.53	–	–
